The assay deals with T1, CD40 peptide, residues 125-144 of human CD40 (125PCPVGFFSNVSSAFEKCHPW144) (human).
T1 construct: It is the unmutated control peptide of the mutagenesis set
T1 peptide: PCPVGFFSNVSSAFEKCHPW
The experiment in a line: PEPSCAN-based ELISA on solid-phase peptides. The protocol: The binding of antibody to each of the synthesized peptides was tested in a PEPSCAN-based ELISA. The peptide arrays were incubated with primary antibody solution (overnight at 4° C.). After washing, the peptide arrays were incubated with a 1/1000 dilution of an antibody peroxidase conjugate (SBA, cat.nr.2010-05) for one hour at 25° C. After washing, the peroxidase substrate 2,2′-azino-di-3-ethylbenzthiazoline sulfonate (ABTS) and 2 microliters/milliliter of 3 percent H₂O₂ were added. After one hour, the color development was measured. The color development was quantified with a charge coupled device (CCD)—camera and an image processing system.
On the technique in general: An ELISA detects its analyte on a solid surface through an enzyme-linked reagent.

The text below walks through data of patent US20230406948A1 (APEXIGEN, published 2023).

B1: APX005, humanized version of the R-8 rabbit anti-CD40 antibody (antibody, IgG1, V domains shown)
VH: QVQLVESGGGVVQPGRSLRLSCAASGFSFSSTYVCWVRQAPGKGLEWIACIYTGDGTNYSASWAKGRFTISKDSSKNTVYLQMNSLRAEDTAVYFCARPDITYGFAINFWGPGTLVTVSS
VL: DIQMTQSPSSLSASVGDRVTIKCQASQSISSRLAWYQQKPGKPPKLLIYRASTLASGVPSRFSGSGSGTDFTLTISSLQPEDVATYYCQCTGYGISWPIGGGTKVEIK
notes: also called humanized R-8; APX005 wild type
For the molecule B1, the binding result was “binds”.
